Experimental data taken from the DeepSol protein solubility set.

Assay: soluble on expression in E. coli; label from the status in PepcDB or PDB records

Sequence	soluble on expression in E. coli
MKSYIVIGAGILGASTAYHLAKEGASVMIIDRGDKGQATDAAAGIVCPWLSQRRNQKWYRLAKGGAKFYPSLIEELESYGETETGYARVGALWLHTDEQKLEQMEERALKRREDAPEMGEIVRLHPQEAKELFPPLVGEHHALYVSGAARVNGRAVRDALMNASQKRGAAYIRGNARLLFEGSRIIGVEADGTKYAAEAVIVTAGAWAGELLEPLGIKLLVTPQKGQLIHLEHPECDTSHWPVVMPPNNQYMLAFPGSRIVIGTTHEDEAGMDIRPTAGGMHELLDKALAVAPGLSTWTYIETRVGFRPRTPGFLPIFGPLPGFSGVYIANGLGSSGLTVGPYLGKELAKLVIGLPTELDPSDYDVASAVAPIVQ	not soluble
MITLNHIAKTYYQGKLAVPILHGISLTIQSGEFVSIMGPSGSGKSTLMNIIGCLDRPTEGEYMLNDVNILTADESKLALIRNEYIGFVFQHFNLLPRLSAVENVELPLVYGGIKKAERRKRALEALGKVGLADRVHHLPNELSGGQKQRVAIARAIANNPTFIMADEPTGALDTKSGEQVMDIFTKLNAEGTTIVMVTHEEEVAAYSSRRIVLRDGKITEDRRCAV	not soluble
MSITHQPANLTLAQIQQMIGGVMLLSQHSPLHRRYVVAEWLQRILPAFELNQFCYYEDEHGRPIAFCNWAFVSEQIRDELLSGVREISPSDWRSGQQIYIPEMIAPFGHGREVVNDLRRRVFLPWQGQKVCTVRGKVDAQNDRCIRKVQWFSI	not soluble
MAISDWPEAERPREKLIEKGAAALSDAELLAIFLRTGITGVSAVELARKLLTHFGSLTKLCAASLHEFSELPGMGPAKFAQLQAVMEMAKRALAEELKNGDIMDSPQSVRNYLCLSLKGKPYEVFVGIFLDARHRTIVTEELFNGTLTQASVYPREVVKRALYHNAAAMIFAHNHPSGIAEPSTADEILTQSLKQALALVDVKVLDHFVIGSSEVVSFAERGLI	not soluble
LKVREDENNPFYFRSSNSFQTLFENQNGRIRLLQRFNKRSPQLENLRDYRIVQFQSKPNTILLPHHADADFLLFVLSGRAILTLVNNDDRDSYNLHPGDAQRIPAGTTYYLVNPHDHQNLKMIWLAIPVNKPGRYDDFFLSSTQAQQSYLQGFSHNILETSFHSEFEEINRVLFGEEEEQRQQEGVIVELSKEQIRQLSRRAKSSSRKTISSEDEPFNLRSRNPIYSNNFGKFFEITPEKNPQLRDLDIFLSSVDINEGALLLPHFNSKAIVILVINEGDANIELVGIKEQQQKQKQEEEPLEVQRYRAELSEDDVFVIPAAYPFVVNATSNLNFLAFGINAENNQRNFLAGEKDNVVRQIERQVQELAFPGSAQDVERLLKKQRESYFVDAQPQQKEEGSKGRKGPFPSILGALY	soluble
MKDTVKSLKQELQTITHWEHSQKDLWFWEKLGRLPFQVLDKLTPKVVHRKLGQLLDELGSYIQSGGQYLVNEGKVLDKLGVSSLAEVPHLPLETMDRVCDELIDARVTFAQLQGAATGIGGALTLAVDIPALLGLALKTLQEIAIVYGYDPKEKEERVFVVKCLQFAAADIVGKKAILDELSSFSNERGRVFSELQGWREVMMTFRDQYGWKKLFQAVPIIGVIFGSLFNKSFMEDIAETGKMLYRKRRIIEKLKQFEPGI	not soluble
MLTSHFPLPFAGHRLHIVDFDASSFREHDLLWLPHHDRLRSAGRKRKAEHLAGRIAAVHALREVGVRTVPGMGDKRQPLWPDGLFGSISHCATTALAVISRQRIGIDIEKIMSQHTATELAPSIIDSDERQILQASLLPFPLALTLAFSAKESVYKAFSDRVTLPGFNSAKVTSLTATHISLHLLPAFAATMAERTVRTEWFQRDNSVITLVSAITRVPHDRSAPASILSAIPR	not soluble
MAKRIKNTTPKQDGFRMPGEFEKQKQIWMLWPWRNDNWRLGAKPAQKAFLEVAEAISEFEPVSLCVPPLQYENALARVSELGSHNIRIIEMTNDDAWIRDCGPTFLVNDKGDLRAVDWEFNAWGGLVDGLYFPWDQDALVARKVCEIEGVDSYKTKDFVLEGGSIHVDGEGTVLVTEMCLLHPSRNPHLTKEDIEDKLKDYLNCVKVLWVKDGIDPYETNGHIDDVACFIRPGEVACIYTDDKEHPFYQEAKAAYDFLSQQTDAKGRPLKVHKMCVTKEPCYLQEAATIDYVEGSIPREEGEMAIASYLNFLIVNGGIILPQYGDENDQLAKQQVQEMFPDRKVVGVRTEEIAYGGGNIHCITQQQPATLEHHHHHH	soluble
MVTIANDFLTVKISRHGAELTSIKDNLTGRERLWQADPAVWGRHAPVLFPIVGALADNQYHYAGKTYHMGQHGFARDRDFTVLSATPFKASFVLKDDDKTRAMYPFAFRLIITFALENNNLHVTYHVDNPDKSEPLFFSIGGHPGFKVPMTPDTQFSDYYLNFKPRKSLVQIPLVAGEGIDYTHRTLAATDANLALTHETFDHDALIFALLGKTTFNLVSDKTKHGVSVTMTDTPYLGVWSPYPTTGDFVCIEPWWGIADTIGSTGDLTRKLGINRLEPGTAFEKGYMISIFLEHHHHHH	not soluble
VWPTAKQAASLIGLDPKLLVAQAALETGWGRFVTRDADGSSSNNLFNIKTGSHSEVESIQVKTTEYIADTPIKINASFRKYPSIEHSFHDYVSLIKGSERYQMALANAENPEIFVSELNKAGYATDPNYSNKILSIYHGDELNQAIQRCESFEQS	not soluble
MAHHHHHHMADSIKSSNSFQKLDNIDAKETSTVDRKWVALTAYQPVDVVTKTVEVPIIKTVEKYVPKTIIQEKIIHVPKNVTHIVEKIVEVPEVKYIEKIVEVPHIHYKNKYVPKIEIVEKVVERQKIIEKWHDKIVEVPQIKEVVRFKQIEDSEEIIKYVPRNSKNIDWEDEYKKYTESKGLQRYSLDQNNIYQQANSFNQFNENAYNQNAFNRSYELLNKQSSVKSQNNASGENFSQMNFYNQYSGANFEQERSIQASNFEPSGSMQLKRLSSEEIKPAGCCSAACT	soluble
MTLYIGMNNTSGKAITDIDHLRQSVRDILLTPQGSRIARREYGSLLSALIDQPQNPALRLQVMSAVYVALSRWEPRLTLDSITINSHFDGSMVVELAGRRNNGVPVSLSVSTGAENGSD	not soluble
MTDTHAHLDFLEPEELAEAAAHLPKLRAVLTLGVDPGRWEKTLSLAQGNVYAAVGLHPTSAHLLSPRWRRPFRHYARSERVRAIGETGLDYYWTPETRAVQLKALDFQAALAEALGLPLVLHVRSKDGKAEEDLAAWLLLHRPKRAVLHAFSGHPALEAAGLEVGAYFSFAGPLTYRKNAALREAAARLPEDRLLVETDTPFLPPEPFRGKRNRPHYVRFTLEKLAEARGLPFAEAEALTDRNARVCFGWP	soluble
MAMTLAEKILAKASGNTQVSPGDIVMAKVETAMVHDITGPLSVNTLKKEGISKVWDNEKIVIPFDHQIPADSINAAENHILMRNFVKEQNIKHFYDIREGVCHQVLPEKGHIVPGTVVVGADSHTCTYGAFGAFATGIGSTDMAAAFATGELWFKVPET	not soluble
MHPASGVMVTVETPETDTVFNRCRPAADGDIVVPHGSTAVLGTTSVDVDDADEFATPDAAVERVIDECSALLPAASDAPIRTTYWGVRPLYSPSDYGDDARAISRGFYVLDHADRDDTAGLTTVVGGKLTTHRLMAEATADLVADRLGVTEPSRTANEPLPGHDDPERLDALVDTFDAASPADADARLEHHHHHH	not soluble
AMVSVSGIRKVQRAEGPATVLAIGTANPPNCVDQSTYADYYFRVTNSEHMTDLKKKFQRICERTQIKNRHMYLTEEILKENPNMCAYKAPSLDAREDMMIREVPRVGKEAATKAIKEWGQPMSKITHLIFCTTSGVALPGVDYELIVLLGLDPSVKRYMMYHQGCFAGGTVLRLAKDLAENNKDARVLIVCSENTSVTFRGPSETDMDSLVGQALFADGAAAIIIGSDPVPEVENPLFEIVSTDQQLVPNSHGAIGGLLREVGLTFYLNKSVPDIISQNINDALSKAFDPLGISDYNSIFWIAHPGGRAILDQVEEKVNLKPEKMKATRDVLSNYGNMSSACVFFIMDLMRKKSLEAGLKTTGEGLDWGVLFGFGPGLTIETVVLRSMAI	soluble
MGSDKIHHHHHHMRLTSREKEIFEVLKKEPLISQEELARRFNITRSSIAVHISNLMKKGVILGKGYVFNEQVSVVVIGESYYYIKTSGPDNDCSINMGLGGFAVDTGRIFANFGLNVKLITIVGNDEEGTNIFNELQGKGVDIVNIFRHAKKRSCRKVFLDDKRILEENFSLQDYEKAIDAREWVVFNCEWLVVDTRFQELLCHKAIGKDEEKLPFFCTCRYLYSIEEIPSFLSRYDLLVLGVADSNIMDHYLSQALALSSNGVQSVILSDGNTRLFYFQKGNAHEFPLLPNQCFDSQEGLPALLAGIVYGLSSGYSLRQAVRIAVGTAASND	not soluble
MGSDKIHHHHHHLQKYLSILRNSPFFKGLADNEILSILHCVNATTISKKRDSYIFRAGDITEVMGIVVSGCVLIIQEDIWGHRNILSKCHAGDFFGEPYAASQRAVLNISVVADEDCEIILLNVKRLLITCPTACEHHQKLIRNLVSVLANKILILNDKITHVGKRTTRDKLLSYLSAESIRHSSLSFDIPFDRQQLADYLCIDRAAMSTEISKLQKEGFIKTNRNHFELQLSIIKKKNYTI	not soluble
MATATMLKPLGDRVVVKRIEEEAKTKGGIVLPDTAKEKPQKGKVVAVGSGRTLDNGTKVPLEVKEGDTVVFAKYGGTEIEIDGEEYIILSERDLLAVI	soluble
MGSDKIHHHHHHMQTAARRSFDYDMPLIQTPTSACQIRQAWAKVADTPDRETADRLKDEIKALLKETNAVLVAHYYVDPLIQDLALETGGCVGDSLEMARFGAEHEAGTLVVAGVRFMGESAKILCPEKTVLMPDLEAECSLDLGCPEEAFSAFCDQHPDRTVVVYANTSAAVKARADWVVTSSVALEIVSYLKSRGEKLIWGPDRHLGDYICRETGADMLLWQGSCIVHNEFKGQELAALKAEHPDAVVLVHPESPQSVIELSDVVGSTSKLLKAAVSRPEKKFIVATDLGILHEMQKQAPDKQFIAAPTAGNGGSCKSCAFCPWMAMNSLGGIKYALTSGRNEILLDRKLGEAAKLPLQRMLDFAAGLKRGDVFNGMGPA	not soluble
MGSDKIHHHHHHDLEEYRTTPKMVINSAFSPDTVVMASISRTWFHSESKPDVTIRNAKVELYIDGIFKEEMPWKEYSYWKSSRWLGEDRGGWVTDTLYISNTVPQPGQTVKIVASTPEYGTASAEDKIPSKTEIKGLRIIPRKEATGNGGTLVDGDGNISYIEENDVLIYQITFQDTPGKSNYYSLQIWGDDDHLGVLLDFSVDPVFTQQQGILDEVFGSSMVNWRGRVFSDELFDGKEYTLQVKEQLRSDTKYYTKRHIRLYSLSEPYYQYLLSLQNIKNEGIMGGLTNVGLAEPVRIYSNVEGGTGIAGGCQWFESLVDIKDLIK	not soluble
QLKNNAAIQIDRVDNTEITETVSFDAEPTYVDDPEAPAGDETVVEEGAPGTKEVTRTVTTVNGQEESSTVINEVEITAAKPATISRGTKT	not soluble
MSLKEFDFIKRYLQTGTDNDVVLGIGDDAAIVRPREGFDLCFSADMLLKDRHFFADVKPEDLAWKVLAVNISDMAAMGAIPRWVLLSAALPELDEVWLKRFCGSFFGLAKKFGVTLIGGDTTKGDMAFNVTIIGELPKGRALRRDAAVAGDDIWVSGRIGMAAAALNCRLKRCVLPDEVFAECEQKLLHPEPRVGLGLALLPFARAAQDVSDGLAQDLGHILTASGKGAEIWADSLPSLSVLKDILPRAQWLSYTLAGGDDYELVFTAPESCRSRVFDAAERCGVPVTRIGKINGGCRLKVLDADGRELELHSLGFDHFGEGHHHHHH	soluble
MKKALFLVGLVFTAGVISSCGGVSSQRTYEGAAVGAAVGAAAGVLLDKENRWRGGVIGAALGAILGGTITEIAQRAAKEAAQNNKPVVYRAEDGSQMVRAEPVEKRGNCTLVKTKYYQNGKLVKVEEKEVCE	not soluble
